Tested on: HAB1
Assay: Yeast two hybrid of pBD-PYR1 site saturation mutants with pACT-HAB1 on 10 μM ABA, β-galactosidase staining
Assay type: cell-based, Arabidopsis
Parameters: key: x: Mutations in PYR1 that disrupt ABA-induced binding to PYR1 to HAB1
Settings: S. cerevisiae Y190, 10 μM ABA; dead = lack of visible staining in comparison to wild type control
Method in brief: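 S. cerevisiae Y190 co-expressing GAL4-DNA-binding-domain–PYR1 mutants and GAL4-activation-domain–HAB1 were spotted on SD (-Leu, -Trp) agar with 10 μM (+)-ABA for 2 days at 30° C. Colonies were chloroform-lysed and stained for β-galactosidase. Mutants lacking visible staining relative to wild type were scored as non-binding.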

| Mutations in PYR1 that disrupt ABA-induced binding to PYR1 to HAB1 | Molecule |
| --- | --- |
| x | H115R: PYR1 mutant (protein, UniProt O49686 1-191, looked up, variant H115R) Abscisic acid receptor PYR1: MPSELTPEERSELKNSIAEFHTYQLDPGSCSSLHAQRIHAPPELVWSIVRRFDKPQTYKHFIKSCSVEQNFEMRVGCTRDVIVISGLPANTSTERLDILDDERRVTGFSIIGGERRLTNYKSVTTVHRFEKENRIWTVVLESYVVDMPEGNSEDDTRMFADTVVKLNLQKLATVAEAMARNSGDGSGSQVT |
| x | H115I: PYR1 mutant (protein, UniProt O49686 1-191, looked up, variant H115I) Abscisic acid receptor PYR1: MPSELTPEERSELKNSIAEFHTYQLDPGSCSSLHAQRIHAPPELVWSIVRRFDKPQTYKHFIKSCSVEQNFEMRVGCTRDVIVISGLPANTSTERLDILDDERRVTGFSIIGGEIRLTNYKSVTTVHRFEKENRIWTVVLESYVVDMPEGNSEDDTRMFADTVVKLNLQKLATVAEAMARNSGDGSGSQVT |
| x | H115W: PYR1 mutant (protein, UniProt O49686 1-191, looked up, variant H115W) Abscisic acid receptor PYR1: MPSELTPEERSELKNSIAEFHTYQLDPGSCSSLHAQRIHAPPELVWSIVRRFDKPQTYKHFIKSCSVEQNFEMRVGCTRDVIVISGLPANTSTERLDILDDERRVTGFSIIGGEWRLTNYKSVTTVHRFEKENRIWTVVLESYVVDMPEGNSEDDTRMFADTVVKLNLQKLATVAEAMARNSGDGSGSQVT |
| x | R116W: PYR1 mutant (protein, UniProt O49686 1-191, looked up, variant R116W) Abscisic acid receptor PYR1: MPSELTPEERSELKNSIAEFHTYQLDPGSCSSLHAQRIHAPPELVWSIVRRFDKPQTYKHFIKSCSVEQNFEMRVGCTRDVIVISGLPANTSTERLDILDDERRVTGFSIIGGEHWLTNYKSVTTVHRFEKENRIWTVVLESYVVDMPEGNSEDDTRMFADTVVKLNLQKLATVAEAMARNSGDGSGSQVT |
| x | H115Y: PYR1 mutant (protein, UniProt O49686 1-191, looked up, variant H115Y) Abscisic acid receptor PYR1: MPSELTPEERSELKNSIAEFHTYQLDPGSCSSLHAQRIHAPPELVWSIVRRFDKPQTYKHFIKSCSVEQNFEMRVGCTRDVIVISGLPANTSTERLDILDDERRVTGFSIIGGEYRLTNYKSVTTVHRFEKENRIWTVVLESYVVDMPEGNSEDDTRMFADTVVKLNLQKLATVAEAMARNSGDGSGSQVT |
| x | R116V: PYR1 mutant (protein, UniProt O49686 1-191, looked up, variant R116V) Abscisic acid receptor PYR1: MPSELTPEERSELKNSIAEFHTYQLDPGSCSSLHAQRIHAPPELVWSIVRRFDKPQTYKHFIKSCSVEQNFEMRVGCTRDVIVISGLPANTSTERLDILDDERRVTGFSIIGGEHVLTNYKSVTTVHRFEKENRIWTVVLESYVVDMPEGNSEDDTRMFADTVVKLNLQKLATVAEAMARNSGDGSGSQVT |
| x | R116A: PYR1 mutant (protein, UniProt O49686 1-191, looked up, variant R116A) Abscisic acid receptor PYR1: MPSELTPEERSELKNSIAEFHTYQLDPGSCSSLHAQRIHAPPELVWSIVRRFDKPQTYKHFIKSCSVEQNFEMRVGCTRDVIVISGLPANTSTERLDILDDERRVTGFSIIGGEHALTNYKSVTTVHRFEKENRIWTVVLESYVVDMPEGNSEDDTRMFADTVVKLNLQKLATVAEAMARNSGDGSGSQVT |
| x | H115V: PYR1 mutant (protein, UniProt O49686 1-191, looked up, variant H115V) Abscisic acid receptor PYR1: MPSELTPEERSELKNSIAEFHTYQLDPGSCSSLHAQRIHAPPELVWSIVRRFDKPQTYKHFIKSCSVEQNFEMRVGCTRDVIVISGLPANTSTERLDILDDERRVTGFSIIGGEVRLTNYKSVTTVHRFEKENRIWTVVLESYVVDMPEGNSEDDTRMFADTVVKLNLQKLATVAEAMARNSGDGSGSQVT |
| x | R116C: PYR1 mutant (protein, UniProt O49686 1-191, looked up, variant R116C) Abscisic acid receptor PYR1: MPSELTPEERSELKNSIAEFHTYQLDPGSCSSLHAQRIHAPPELVWSIVRRFDKPQTYKHFIKSCSVEQNFEMRVGCTRDVIVISGLPANTSTERLDILDDERRVTGFSIIGGEHCLTNYKSVTTVHRFEKENRIWTVVLESYVVDMPEGNSEDDTRMFADTVVKLNLQKLATVAEAMARNSGDGSGSQVT |
| x | R116T: PYR1 mutant (protein, UniProt O49686 1-191, looked up, variant R116T) Abscisic acid receptor PYR1: MPSELTPEERSELKNSIAEFHTYQLDPGSCSSLHAQRIHAPPELVWSIVRRFDKPQTYKHFIKSCSVEQNFEMRVGCTRDVIVISGLPANTSTERLDILDDERRVTGFSIIGGEHTLTNYKSVTTVHRFEKENRIWTVVLESYVVDMPEGNSEDDTRMFADTVVKLNLQKLATVAEAMARNSGDGSGSQVT |
| x | H115K: PYR1 mutant (protein, UniProt O49686 1-191, looked up, variant H115K) Abscisic acid receptor PYR1: MPSELTPEERSELKNSIAEFHTYQLDPGSCSSLHAQRIHAPPELVWSIVRRFDKPQTYKHFIKSCSVEQNFEMRVGCTRDVIVISGLPANTSTERLDILDDERRVTGFSIIGGEKRLTNYKSVTTVHRFEKENRIWTVVLESYVVDMPEGNSEDDTRMFADTVVKLNLQKLATVAEAMARNSGDGSGSQVT |
| x | H115D: PYR1 mutant (protein, UniProt O49686 1-191, looked up, variant H115D) Abscisic acid receptor PYR1: MPSELTPEERSELKNSIAEFHTYQLDPGSCSSLHAQRIHAPPELVWSIVRRFDKPQTYKHFIKSCSVEQNFEMRVGCTRDVIVISGLPANTSTERLDILDDERRVTGFSIIGGEDRLTNYKSVTTVHRFEKENRIWTVVLESYVVDMPEGNSEDDTRMFADTVVKLNLQKLATVAEAMARNSGDGSGSQVT |
| x | H115G: PYR1 mutant (protein, UniProt O49686 1-191, looked up, variant H115G) Abscisic acid receptor PYR1: MPSELTPEERSELKNSIAEFHTYQLDPGSCSSLHAQRIHAPPELVWSIVRRFDKPQTYKHFIKSCSVEQNFEMRVGCTRDVIVISGLPANTSTERLDILDDERRVTGFSIIGGEGRLTNYKSVTTVHRFEKENRIWTVVLESYVVDMPEGNSEDDTRMFADTVVKLNLQKLATVAEAMARNSGDGSGSQVT |
| x | R116S: PYR1 mutant (protein, UniProt O49686 1-191, looked up, variant R116S) Abscisic acid receptor PYR1: MPSELTPEERSELKNSIAEFHTYQLDPGSCSSLHAQRIHAPPELVWSIVRRFDKPQTYKHFIKSCSVEQNFEMRVGCTRDVIVISGLPANTSTERLDILDDERRVTGFSIIGGEHSLTNYKSVTTVHRFEKENRIWTVVLESYVVDMPEGNSEDDTRMFADTVVKLNLQKLATVAEAMARNSGDGSGSQVT |
| x | H115C: PYR1 mutant (protein, UniProt O49686 1-191, looked up, variant H115C) Abscisic acid receptor PYR1: MPSELTPEERSELKNSIAEFHTYQLDPGSCSSLHAQRIHAPPELVWSIVRRFDKPQTYKHFIKSCSVEQNFEMRVGCTRDVIVISGLPANTSTERLDILDDERRVTGFSIIGGECRLTNYKSVTTVHRFEKENRIWTVVLESYVVDMPEGNSEDDTRMFADTVVKLNLQKLATVAEAMARNSGDGSGSQVT |
| x | H115S: PYR1 mutant (protein, UniProt O49686 1-191, looked up, variant H115S) Abscisic acid receptor PYR1: MPSELTPEERSELKNSIAEFHTYQLDPGSCSSLHAQRIHAPPELVWSIVRRFDKPQTYKHFIKSCSVEQNFEMRVGCTRDVIVISGLPANTSTERLDILDDERRVTGFSIIGGESRLTNYKSVTTVHRFEKENRIWTVVLESYVVDMPEGNSEDDTRMFADTVVKLNLQKLATVAEAMARNSGDGSGSQVT |
| x | H115E: PYR1 mutant (protein, UniProt O49686 1-191, looked up, variant H115E) Abscisic acid receptor PYR1: MPSELTPEERSELKNSIAEFHTYQLDPGSCSSLHAQRIHAPPELVWSIVRRFDKPQTYKHFIKSCSVEQNFEMRVGCTRDVIVISGLPANTSTERLDILDDERRVTGFSIIGGEERLTNYKSVTTVHRFEKENRIWTVVLESYVVDMPEGNSEDDTRMFADTVVKLNLQKLATVAEAMARNSGDGSGSQVT |
| x | R116P: PYR1 mutant (protein, UniProt O49686 1-191, looked up, variant R116P) Abscisic acid receptor PYR1: MPSELTPEERSELKNSIAEFHTYQLDPGSCSSLHAQRIHAPPELVWSIVRRFDKPQTYKHFIKSCSVEQNFEMRVGCTRDVIVISGLPANTSTERLDILDDERRVTGFSIIGGEHPLTNYKSVTTVHRFEKENRIWTVVLESYVVDMPEGNSEDDTRMFADTVVKLNLQKLATVAEAMARNSGDGSGSQVT |
| x | H115T: PYR1 mutant (protein, UniProt O49686 1-191, looked up, variant H115T) Abscisic acid receptor PYR1: MPSELTPEERSELKNSIAEFHTYQLDPGSCSSLHAQRIHAPPELVWSIVRRFDKPQTYKHFIKSCSVEQNFEMRVGCTRDVIVISGLPANTSTERLDILDDERRVTGFSIIGGETRLTNYKSVTTVHRFEKENRIWTVVLESYVVDMPEGNSEDDTRMFADTVVKLNLQKLATVAEAMARNSGDGSGSQVT |
| x | H115F: PYR1 mutant (protein, UniProt O49686 1-191, looked up, variant H115F) Abscisic acid receptor PYR1: MPSELTPEERSELKNSIAEFHTYQLDPGSCSSLHAQRIHAPPELVWSIVRRFDKPQTYKHFIKSCSVEQNFEMRVGCTRDVIVISGLPANTSTERLDILDDERRVTGFSIIGGEFRLTNYKSVTTVHRFEKENRIWTVVLESYVVDMPEGNSEDDTRMFADTVVKLNLQKLATVAEAMARNSGDGSGSQVT |
| x | R116Y: PYR1 mutant (protein, UniProt O49686 1-191, looked up, variant R116Y) Abscisic acid receptor PYR1: MPSELTPEERSELKNSIAEFHTYQLDPGSCSSLHAQRIHAPPELVWSIVRRFDKPQTYKHFIKSCSVEQNFEMRVGCTRDVIVISGLPANTSTERLDILDDERRVTGFSIIGGEHYLTNYKSVTTVHRFEKENRIWTVVLESYVVDMPEGNSEDDTRMFADTVVKLNLQKLATVAEAMARNSGDGSGSQVT |

Source: US10919943B2, “Mutant proteins enabling agrochemical control of plant gene expression” (The Regents of the University of California, priority 2016, dated 2021)
